The values below come from article PMC6144805.

The assay has as its target RecQ-ΔΔC (E. coli RecQ variant lacking both the WH and HRDC domains) (Escherichia coli).

Chain of E. coli ssDNA-binding protein (SSB) (P0AGE0 whole entry): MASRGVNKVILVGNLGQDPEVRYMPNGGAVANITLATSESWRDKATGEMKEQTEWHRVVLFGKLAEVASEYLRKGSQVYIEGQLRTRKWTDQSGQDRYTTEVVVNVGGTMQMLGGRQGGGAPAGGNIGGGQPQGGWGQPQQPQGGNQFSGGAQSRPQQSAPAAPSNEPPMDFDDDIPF

“E. coli ssDNA-binding protein (SSB) (from UniProt P0AGE0 1-178) (natural protein)” registered an average unwinding processivity of RecQ-ΔΔC with SSB of 2.5 kb.
